Laboratory results as given in patent publication US20230272048A1.

What was measured:
Assay in all cases: capture ELISA on Env of lysed AD8 pseudovirus, % of WT
A329K (HIV-1) = target: A329K (HIV-1)
[1] = target: AD8 Env D279A (HIV-1 AD8, clade B)
[2] = target: AD8 Env D368A (HIV-1 AD8, clade B)
[3] = target: AD8 Env D457A (HIV-1 AD8, clade B)
[4] = target: AD8 Env D474A (HIV-1 AD8, clade B)
[5] = target: AD8 Env E370A (HIV-1 AD8, clade B)
[6] = target: AD8 Env G366A (HIV-1 AD8, clade B)
[7] = target: AD8 Env G471A (HIV-1 AD8, clade B)
[8] = target: AD8 Env G473A (HIV-1 AD8, clade B)
[9] = target: AD8 Env I371A (HIV-1 AD8, clade B)
[10] = target: AD8 Env N332T (HIV-1 AD8, clade B)
[11] = target: AD8 Env T455A (HIV-1 AD8, clade B)
[12] = target: AD8 Env V372A (HIV-1 AD8, clade B)
D185A (HIV-1) = target: D185A (HIV-1)
E87A (HIV-1) = target: E87A (HIV-1)
G472A (HIV-1) = target: G472A (HIV-1)
K121A (HIV-1) = target: K121A (HIV-1)
K282A (HIV-1) = target: K282A (HIV-1)
L179A (HIV-1) = target: L179A (HIV-1)
M373A (HIV-1) = target: M373A (HIV-1)
M475A (HIV-1) = target: M475A (HIV-1)
N197A (HIV-1) = target: N197A (HIV-1)
N262A (HIV-1) = target: N262A (HIV-1)
N276A (HIV-1) = target: N276A (HIV-1)
N283A (HIV-1) = target: N283A (HIV-1)
P369A (HIV-1) = target: P369A (HIV-1)
Q363A (HIV-1) = target: Q363A (HIV-1)
R419A (HIV-1) = target: R419A (HIV-1)
R476A (HIV-1) = target: R476A (HIV-1)
S364A (HIV-1) = target: S364A (HIV-1)
S365A (HIV-1) = target: S365A (HIV-1)
[13] = target: AD8 Env G367A (HIV-1 AD8, clade B)
P313A (HIV-1) = target: P313A (HIV-1)

PGT121 (antibody) gave an Env binding (%) at antibody EC50 (A329K (HIV-1)) of 53%, an Env binding (%) at antibody EC50 [1] of 103% and an Env binding (%) at antibody EC50 [2] of 79%. The Env binding (%) at antibody EC50 [3] was 108%, the Env binding (%) at antibody EC50 [4] was 81% and the Env binding (%) at antibody EC50 [5] was 74%. For the same substance, the Env binding (%) at antibody EC50 [6] was 80%, the Env binding (%) at antibody EC50 [7] was 75% and the Env binding (%) at antibody EC50 [8] was 80%. The Env binding (%) at antibody EC50 [9] was 80%, the Env binding (%) at antibody EC50 [10] was 8% and the Env binding (%) at antibody EC50 [11] was 92%. The Env binding (%) at antibody EC50 [12] was 83%, the Env binding (%) at antibody EC50 (D185A (HIV-1)) was 81% and the Env binding (%) at antibody EC50 (E87A (HIV-1)) was 73%. It also gave an Env binding (%) at antibody EC50 (G472A (HIV-1)) of 78%, an Env binding (%) at antibody EC50 (K121A (HIV-1)) of 84% and an Env binding (%) at antibody EC50 (K282A (HIV-1)) of 78%. It also gave an Env binding (%) at antibody EC50 (L179A (HIV-1)) of 87%, an Env binding (%) at antibody EC50 (M373A (HIV-1)) of 90% and an Env binding (%) at antibody EC50 (M475A (HIV-1)) of 84%. It also gave an Env binding (%) at antibody EC50 (N197A (HIV-1)) of 65%, an Env binding (%) at antibody EC50 (N262A (HIV-1)) of 75% and an Env binding (%) at antibody EC50 (N276A (HIV-1)) of 97%. The Env binding (%) at antibody EC50 (N283A (HIV-1)) was 75%, the Env binding (%) at antibody EC50 (P369A (HIV-1)) was 74% and the Env binding (%) at antibody EC50 (Q363A (HIV-1)) was 72%. For the same substance, the Env binding (%) at antibody EC50 (R419A (HIV-1)) was 82%, the Env binding (%) at antibody EC50 (R476A (HIV-1)) was 73% and the Env binding (%) at antibody EC50 (S364A (HIV-1)) was 82%. For the same substance, the Env binding (%) at antibody EC50 (S365A (HIV-1)) was 96%.
With b12 (antibody) the Env binding (%) at antibody EC50 (A329K (HIV-1)) was 51%, the Env binding (%) at antibody EC50 [1] was 86% and the Env binding (%) at antibody EC50 [2] was 21%. It also gave an Env binding (%) at antibody EC50 [3] of 57%, an Env binding (%) at antibody EC50 [4] of 70% and an Env binding (%) at antibody EC50 [5] of 54%. It also gave an Env binding (%) at antibody EC50 [6] of 47%, an Env binding (%) at antibody EC50 [13] of 68% and an Env binding (%) at antibody EC50 [7] of 88%. It also gave an Env binding (%) at antibody EC50 [8] of 96%, an Env binding (%) at antibody EC50 [9] of 73% and an Env binding (%) at antibody EC50 [10] of 66%. It also gave an Env binding (%) at antibody EC50 [11] of 114%, an Env binding (%) at antibody EC50 (D185A (HIV-1)) of 63% and an Env binding (%) at antibody EC50 (E87A (HIV-1)) of 99%. The Env binding (%) at antibody EC50 (G472A (HIV-1)) was 93%, the Env binding (%) at antibody EC50 (K121A (HIV-1)) was 95% and the Env binding (%) at antibody EC50 (K282A (HIV-1)) was 96%. It also gave an Env binding (%) at antibody EC50 (L179A (HIV-1)) of 41%, an Env binding (%) at antibody EC50 (M373A (HIV-1)) of 111% and an Env binding (%) at antibody EC50 (M475A (HIV-1)) of 103%. For the same substance, the Env binding (%) at antibody EC50 (N197A (HIV-1)) was 69%, the Env binding (%) at antibody EC50 (N262A (HIV-1)) was 52% and the Env binding (%) at antibody EC50 (N276A (HIV-1)) was 86%. The Env binding (%) at antibody EC50 (N283A (HIV-1)) was 98%, the Env binding (%) at antibody EC50 (P313A (HIV-1)) was 95% and the Env binding (%) at antibody EC50 (P369A (HIV-1)) was 90%. The Env binding (%) at antibody EC50 (Q363A (HIV-1)) was 77%, the Env binding (%) at antibody EC50 (R419A (HIV-1)) was 74% and the Env binding (%) at antibody EC50 (R476A (HIV-1)) was 79%. The Env binding (%) at antibody EC50 (S364A (HIV-1)) was 110% and the Env binding (%) at antibody EC50 (S365A (HIV-1)) was 64%.
